Measurements: patent US20120117670A1 (U3 PHARMA, published 2012)

T1: Human AXL-Fc (R&D Systems, #154-AL) (human, UniProt P30530 26-451)
T1 construct: Bought reagent; also called human AXL-Fc fusion protein; human AXL-Fc protein; not shown: Fc part of the bought fusion protein
T1 sequence: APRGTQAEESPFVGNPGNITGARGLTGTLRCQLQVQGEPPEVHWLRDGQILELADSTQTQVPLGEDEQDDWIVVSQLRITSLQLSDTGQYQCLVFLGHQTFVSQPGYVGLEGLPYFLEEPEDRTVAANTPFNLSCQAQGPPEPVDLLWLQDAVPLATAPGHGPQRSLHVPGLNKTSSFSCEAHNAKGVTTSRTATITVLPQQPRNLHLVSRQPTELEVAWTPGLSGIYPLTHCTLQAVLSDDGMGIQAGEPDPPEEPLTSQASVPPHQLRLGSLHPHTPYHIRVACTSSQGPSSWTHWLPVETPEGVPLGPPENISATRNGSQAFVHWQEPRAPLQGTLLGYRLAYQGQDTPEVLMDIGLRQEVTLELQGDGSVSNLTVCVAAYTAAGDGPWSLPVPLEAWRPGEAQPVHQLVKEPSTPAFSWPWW


target: T1, Human AXL-Fc (R&D Systems, #154-AL); assay: ELISA on plate-adsorbed human AXL-Fc (1 ug/ml), 5-fold antibody dilution series, AP-conjugated goat anti-human IgG, fluorescent substrate (Example 13)

Binder	EC50 (read off the curve) [µg/mL]
h#11B7-T20 (antibody, human IgG1, kappa, V domains shown, Humanized IgG1/kappa) VH: QVQLQESGPGLVKPSETLSLTCTVSGYSITSNYWGWIRQPPGKGLEWMGYITYSGSTSYNPSLKSRITISRDTSKNQFSLKLSSVTAADTAVYYCAITTFYYWGQGTLVTVSS VL: DIQMTQSPSSLSASVGDRVTITCRASQDIGNYLRWYQQKPGKAPKLLISGATNLAAGVPSRFSGSGSGSDFTLTISSLQPEDFATYYCLQSKESPWTFGQGTKVEIKR	~0.02
h#11B7-T18 (antibody, human IgG1, kappa, Humanized IgG1/kappa) heavy: not shown light: DIQMTQSPSSLSASVGDRVTITCRASQDIGNYLRWFQQKPGKAPKLLISGATNLAAGVPSRFSGSGSGSDFTLTISSLQPEDFATYYCLQSKESPWTFGQGTKVEIKRTVAAPSVFIFPPSDEQLKSGTASVVCLLNNFYPREAKVQWKVDNALQSGNSQESVTEQDSKDSTYSLSSTLTLSKADYEKHKVYACEVTHQGLSSPVTKSFNRGEC	~0.02
h#11B7-T15 (antibody, human IgG1, kappa, Humanized IgG1/kappa) heavy: not shown light: DIQMTQSPSSLSASVGDRVTITCRASQDIGNYLRWFQQKPGKAPKLLISGATNLAAGVPSRFSGSGSGSDYTLTISSLQPEDFATYYCLQSKESPWTFGQGTKVEIKRTVAAPSVFIFPPSDEQLKSGTASVVCLLNNFYPREAKVQWKVDNALQSGNSQESVTEQDSKDSTYSLSSTLTLSKADYEKHKVYACEVTHQGLSSPVTKSFNRGEC	~0.02

Results, then the binder that gave them:

EC50 (read off the curve) [µg/mL]	Binder
~0.02	h#11B7-T19 (antibody, human IgG1, kappa, V domains shown, Humanized IgG1/kappa) VH: QVQLQESGPGLVKPSETLSLTCTVSGYSITSNYWGWIRQPPGKGLEWMGYITYSGSTSYNPSLKSRITISRDTSKNQFSLKLSSVTAADTAVYYCAITTFYYWGQGTLVTVSS VL: DIQMTQSPSSLSASVGDRVTITCRASQDIGNYLRWYQQKPGKAPKLMISGATNLAAGVPSRFSGSGSGSDFTLTISSLQPEDFATYYCLQSKESPWTFGQGTKVEIKR
~0.02	h#11B7-T14 (antibody, human IgG1, kappa, V domains shown, Humanized IgG1/kappa) VH: QVQLQESGPGLVKPSETLSLTCTVSGYSITSNYWGWIRQPPGKGLEWMGYITYSGSTSYNPSLKSRITISRDTSKNQFSLKLSSVTAADTAVYYCAITTFYYWGQGTLVTVSS VL: DIQMTQSPSSLSASVGDRVTITCRASQDIGNYLRWYQQKPGKAPKLMISGATNLAAGVPSRFSGSGSGSDYTLTISSLQPEDFATYYCLQSKESPWTFGQGTKVEIKR
~0.02	h#11B7-T17 (antibody, human IgG1, kappa, V domains shown, Humanized IgG1/kappa) VH: QVQLQESGPGLVKPSETLSLTCTVSGYSITSNYWGWIRQPPGKGLEWMGYITYSGSTSYNPSLKSRITISRDTSKNQFSLKLSSVTAADTAVYYCAITTFYYWGQGTLVTVSS VL: DIQMTQSPSSLSASVGDRVTITCRASQDIGNYLRWYQQKPGKAPKLLISGATNLAAGVPSRFSGSGSGSDYTLTISSLQPEDFATYYCLQSKESPWTFGQGTKVEIKR
~0.02	h#11B7-T16 (antibody, human IgG1, kappa, V domains shown, Humanized IgG1/kappa) VH: QVQLQESGPGLVKPSETLSLTCTVSGYSITSNYWGWIRQPPGKGLEWMGYITYSGSTSYNPSLKSRITISRDTSKNQFSLKLSSVTAADTAVYYCAITTFYYWGQGTLVTVSS VL: DIQMTQSPSSLSASVGDRVTITCRASQDIGNYLRWFQQKPGKAPKLMISGATNLAAGVPSRFSGSGSGSDFTLTISSLQPEDFATYYCLQSKESPWTFGQGTKVEIKR

target: T1, Human AXL-Fc (R&D Systems, #154-AL); assay: as above; remark: another data set of the same source

Binder	EC50 (read off the curve) [µg/mL]
h#11B7-T8 (antibody, human IgG1, kappa, V domains shown, Humanized IgG1/kappa) VH: QVQLQESGPGLVKPSETLSLTCTVSGYSITSNYWGWIRQPPGKGLEWIGYITYSGSTSYNPSLKSRVSISRDTSKNQFSLKLSSVTAADTAVYYCAITTFYYWGQGTLVTVSS VL: DIQMTQSPSSLSASVGDRVTITCRASQDIGNYLRWFQQKPGKAPKLLISGATNLAAGVPSRFSGSGSGSDYTLTISSLQPEDFATYYCLQSKESPWTFGQGTKVEIKR	~0.02
h#11B7-T13 (antibody, human IgG1, kappa, V domains shown, Humanized IgG1/kappa) VH: QVQLQESGPGLVKPSETLSLTCTVSGYSITSNYWGWIRQPPGKGLEWIGYITYSGSTSYNPSLKSRVSISRDTSKNQFSLKLSSVTAADTAVYYCAITTFYYWGQGTLVTVSS VL: DIQMTQSPSSLSASVGDRVTITCRASQDIGNYLRWYQQKPGKAPKLLISGATNLAAGVPSRFSGSGSGSDFTLTISSLQPEDFATYYCLQSKESPWTFGQGTKVEIKR	~0.03
h#11B7-T9 (antibody, human IgG1, kappa, V domains shown, Humanized IgG1/kappa) VH: QVQLQESGPGLVKPSETLSLTCTVSGYSITSNYWGWIRQPPGKGLEWIGYITYSGSTSYNPSLKSRVSISRDTSKNQFSLKLSSVTAADTAVYYCAITTFYYWGQGTLVTVSS VL: DIQMTQSPSSLSASVGDRVTITCRASQDIGNYLRWFQQKPGKAPKLMISGATNLAAGVPSRFSGSGSGSDFTLTISSLQPEDFATYYCLQSKESPWTFGQGTKVEIKR	~0.02

The next lines start with the values.

EC50 (read off the curve) [µg/mL]	Binder
~0.02	h#11B7-T10 (antibody, human IgG1, kappa, V domains shown, Humanized IgG1/kappa) VH: QVQLQESGPGLVKPSETLSLTCTVSGYSITSNYWGWIRQPPGKGLEWIGYITYSGSTSYNPSLKSRVSISRDTSKNQFSLKLSSVTAADTAVYYCAITTFYYWGQGTLVTVSS VL: DIQMTQSPSSLSASVGDRVTITCRASQDIGNYLRWYQQKPGKAPKLLISGATNLAAGVPSRFSGSGSGSDYTLTISSLQPEDFATYYCLQSKESPWTFGQGTKVEIKR
~0.04	h#11B7-T12 (antibody, human IgG1, kappa, V domains shown, Humanized IgG1/kappa) VH: QVQLQESGPGLVKPSETLSLTCTVSGYSITSNYWGWIRQPPGKGLEWIGYITYSGSTSYNPSLKSRVSISRDTSKNQFSLKLSSVTAADTAVYYCAITTFYYWGQGTLVTVSS VL: DIQMTQSPSSLSASVGDRVTITCRASQDIGNYLRWYQQKPGKAPKLMISGATNLAAGVPSRFSGSGSGSDFTLTISSLQPEDFATYYCLQSKESPWTFGQGTKVEIKR
~0.03	h#11B7-T7 (antibody, human IgG1, kappa, V domains shown, Humanized IgG1/kappa) VH: QVQLQESGPGLVKPSETLSLTCTVSGYSITSNYWGWIRQPPGKGLEWIGYITYSGSTSYNPSLKSRVSISRDTSKNQFSLKLSSVTAADTAVYYCAITTFYYWGQGTLVTVSS VL: DIQMTQSPSSLSASVGDRVTITCRASQDIGNYLRWYQQKPGKAPKLMISGATNLAAGVPSRFSGSGSGSDYTLTISSLQPEDFATYYCLQSKESPWTFGQGTKVEIKR
~0.02	h#11B7-T11 (antibody, human IgG1, kappa, V domains shown, Humanized IgG1/kappa) VH: QVQLQESGPGLVKPSETLSLTCTVSGYSITSNYWGWIRQPPGKGLEWIGYITYSGSTSYNPSLKSRVSISRDTSKNQFSLKLSSVTAADTAVYYCAITTFYYWGQGTLVTVSS VL: DIQMTQSPSSLSASVGDRVTITCRASQDIGNYLRWFQQKPGKAPKLLISGATNLAAGVPSRFSGSGSGSDFTLTISSLQPEDFATYYCLQSKESPWTFGQGTKVEIKR

target: T1, Human AXL-Fc (R&D Systems, #154-AL); assay: as above; remark: another data set of the same source

EC50 (read off the curve) [µg/mL]	Binder
~0.01	h#11B7-T25 (antibody, human IgG1, kappa, Humanized IgG1/kappa) heavy: not shown light: DIQMTQSPSSLSASVGDRVTITCRASQDIGNYLRWFQQKPGKAPKLLISGATNLAAGVPSRFSGSGSGSDFTLTISSLQPEDFATYYCLQSKESPWTFGQGTKVEIKRTVAAPSVFIFPPSDEQLKSGTASVVCLLNNFYPREAKVQWKVDNALQSGNSQESVTEQDSKDSTYSLSSTLTLSKADYEKHKVYACEVTHQGLSSPVTKSFNRGEC
~0.02	h#11B7-T21 (antibody, human IgG1, kappa, V domains shown, Humanized IgG1/kappa) VH: QVQLQESGPGLVKPSETLSLTCTVSGYSITSNYWGWIRQPPGKGLEWIGYITYSGSTSYNPSLKSRVTISRDTSKNQFSLKLSSVTAADTAVYYCAITTFYYWGQGTLVTVSS VL: DIQMTQSPSSLSASVGDRVTITCRASQDIGNYLRWYQQKPGKAPKLMISGATNLAAGVPSRFSGSGSGSDYTLTISSLQPEDFATYYCLQSKESPWTFGQGTKVEIKR
